Data published in paper PMC5940392 (Oncotarget, 2018).

Molecular target: Lysine-specific demethylase 1 (human (endogenous in HEL), UniProt O60341 1-852)
Experiment: affinity purification with mass spectrometry; LSD1-IP from HEL cells treated with NCD38 or DMSO; label-free quantification (Progenesis QI); binding rate change = normalized abundance in NCD38-treated cells divided by that in DMSO-treated cells, normalized to LSD1
Conditions: partners not purified

B1: GFI1B (natural protein)
chain: not shown
notes: GFI1B, human, UniProtKB Q5VTD9; source: endogenous, HEL whole-cell lysate
binding rate after NCD38 relative to DMSO: 27%
